From patent publication US20240166765A1 (ICONIC THERAPEUTICS, published 2024)
Numbering of substitutions follows the chain as printed.

How the values were obtained:
cynomolgus TF ECD-His6 [1] = target: T1, cynomolgus TF ECD-His6 (cynomolgus monkey (Macaca fascicularis)); experiment: SPR (Biacore), antibody on chip, TF-His titrated
T1 construct: made in Expi293 cells; also called TF-His; cTF
T1 chain: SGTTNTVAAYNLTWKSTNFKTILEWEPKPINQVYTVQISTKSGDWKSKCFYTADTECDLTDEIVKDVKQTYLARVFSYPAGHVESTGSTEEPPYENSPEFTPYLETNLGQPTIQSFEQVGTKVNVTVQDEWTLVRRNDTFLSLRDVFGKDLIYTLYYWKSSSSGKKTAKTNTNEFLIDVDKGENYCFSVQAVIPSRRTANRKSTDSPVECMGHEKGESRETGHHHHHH

human TF ECD-His6 [2] = target: T2, human TF ECD-His6 (human, UniProt P13726 33-251); experiment: SPR (Biacore), antibody on chip, TF-His titrated
T2 construct: made in Expi293 cells; the entry holds the ECD with the C-terminal TG-His6; also called TF-His; hTF

mouse TF ECD-His6 = target: T3, mouse TF ECD-His6 (mouse, UniProt P20352 29-251); experiment: BLI (ForteBio Octet)
T3 construct: made in Expi293 cells; also called TF-His; mTF

human TF ECD-His6 [3] = target: T2, human TF ECD-His6; experiment: BLI (ForteBio Octet)
cynomolgus TF ECD-His6 [4] = target: T1, cynomolgus TF ECD-His6; experiment: BLI (ForteBio Octet)
[5] = target: rTF (rat TF) on HEK293 cells (rat, UniProt P42533 29-252); experiment: live cell staining of transfected HEK293, flow cytometry
pig TF-His = target: T4, pig TF-His (pig (Sus scrofa)); experiment: SPR (Biacore), antibody captured by anti-human IgG on CM5 chip, pig TF-His in solution, 1:1 model
T4 construct: also called pig TF ECD-His; pTF
T4 chain: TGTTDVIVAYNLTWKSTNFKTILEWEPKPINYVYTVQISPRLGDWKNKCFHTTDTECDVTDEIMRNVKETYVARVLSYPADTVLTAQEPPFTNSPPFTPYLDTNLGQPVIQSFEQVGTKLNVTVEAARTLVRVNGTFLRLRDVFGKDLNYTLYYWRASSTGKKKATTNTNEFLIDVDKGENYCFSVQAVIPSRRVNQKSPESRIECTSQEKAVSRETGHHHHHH

relipidated TF [6] = target: T5, relipidated TF (UniProt P13726 33-295, limits assumed); experiment: cell-based or functional assay
[7] = target: T6, human Tissue Factor on MDA-MB-231 cells (human, UniProt P13726 33-295); experiment: cell-based or functional assay
relipidated TF [8] = target: T5, relipidated TF; experiment: cell-based or functional assay; remark: listed apart in the source
[9] = target: T6, human Tissue Factor on MDA-MB-231 cells; experiment: cell-based or functional assay; remark: listed apart in the source
[10] = target: human Tissue Factor (hTF), endogenously expressed on human TF-positive cells (human, UniProt P13726 33-295); experiment: cell-based or functional assay

Sequence of rTF (rat TF) on HEK293 cells (P42533 29-252): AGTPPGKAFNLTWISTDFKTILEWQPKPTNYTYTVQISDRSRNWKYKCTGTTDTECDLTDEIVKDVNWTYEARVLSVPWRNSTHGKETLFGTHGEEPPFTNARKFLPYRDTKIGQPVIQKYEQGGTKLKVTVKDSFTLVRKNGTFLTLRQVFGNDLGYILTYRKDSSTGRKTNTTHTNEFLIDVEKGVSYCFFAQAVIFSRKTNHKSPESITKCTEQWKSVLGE

B1: 25A5 (antibody, human IgG1, kappa, V domains shown)
VH: QVQLVQSGAEVKKPGASVKVSCKASGYTFDVYGISWVRQAPGQGLEWMGWIAPYSGNTNYAQKLQGRVTMTTDTSTSTAYMELRSLRSDDTAVYYCARDAGTYSPFGYGMDVWGQGTTVTVSS
VL: DIQMTQSPSTLSASVGDRVTITCRASESISNWLAWYQQKPGKAPKLLIYKAYSLEYGVPSRFSGSGSGTEFTLTISSLQPDDFATYYCQQFQKLPPFTFGGGTKVEIKR
notes: human IgG1
B1 gave a Kd (cynomolgus TF ECD-His6 [1]) of 0.04 nM, a Kd (human TF ECD-His6 [2]) of 0.08 nM and a Kd (mouse TF ECD-His6) of 188 nM. For the same binder, the Kd (human TF ECD-His6 [3]) was 0.64 nM.

B2: 25G (antibody, human IgG1, kappa, V domains shown)
VH: B1 VH with D30R, V31S, I51V, S55N, F106Y
VL: B1 VL with E27Q, N31S, Y52S, Y56S, K93S
notes: human IgG1
B2 gave a Kd (cynomolgus TF ECD-His6 [1]) of 18 nM, a Kd (human TF ECD-His6 [2]) of 23 nM and a Kd (mouse TF ECD-His6) of 114 nM. For the same binder, the Kd (cynomolgus TF ECD-His6 [4]) was 17.5 nM and the Kd (human TF ECD-His6 [3]) was 21.9 nM.

B3: 25A5-T (antibody, human IgG1, kappa, V domains shown)
VH: B1 VH with V31A
VL: B1 VL
notes: human IgG1
B3: no binding (tested: 15 µg/ml (100 nM)) [5].

B4: 25A3 (antibody, human IgG1, kappa, V domains shown)
VH: B1 VH
VL: B1 VL with R24Q, E27Q, S30N, S53N, Y56S, Q90L, K93S
notes: Human IgG1; also called antibody 25A3
B4 was tested, and the Kd (pig TF-His) was 5.5 nM.

B5: 29E (antibody, human IgG1, V domains shown)
VH: QVQLVESGGGVVQPGRSLRLSCAASGFTFRSYGMHWVRQAPGKGLEWVAVITYDGINKYYADSVEGRFTISRDNSKNTLYLQMNSLRAEDTAVYYCARDGVYYGVYDYWGQGTLVTVSS
VL: not shown
notes: human IgG1
With B5 the Kd (cynomolgus TF ECD-His6 [1]) was 5.06 nM, the Kd (human TF ECD-His6 [2]) was 0.47 nM and the binding result [5] was “no binding (tested: 15 µg/ml (100 nM))”. It also gave a Kd (cynomolgus TF ECD-His6 [4]) of 15 nM and a Kd (human TF ECD-His6 [3]) of 2.32 nM.

B6: 5G9 (antibody, V domains shown)
VH: QVQLVESGGGVVQPGRSLRLSCKASGFNIKDYYMHWVRQAPGKGLEWIGLIDPENGNTIYDPKFQGRFTISADNSKNTLFLQMDSLRPEDTAVYYCARDNSYYFDYWGQGTPVTVSS
VL: DIQMTQSPSSLSASVGDRVTITCKASQDIRKYLNWYQQKPGKAPKLLIYYATSLADGVPSRFSGSGSGTDYTFTISSLQPEDIATYYCLQHGESPYTFGQGTKLEIT
In the case of B6, the “decrease of peak IIa concentration, TGA with 10 min pre-incubation, 100 nM Ab” value (relipidated TF [6]) is reported as 92% and the “decrease of peak IIa concentration, TGA without pre-incubation, 100 nM Ab” value (relipidated TF [6]) is reported as 92%.

B7: 5G9 (humanized TF8-5G9, CNTO 860) (antibody, V domains shown)
VH: B6 VH
VL: B6 VL
B7 was tested, and the “% FXa, 12.5 nM Ab” value [7] was 37%, the “% FXa, 25 nM Ab” value [7] was 33% and the “% FXa, 50 nM Ab” value [7] was 30%. The “% FXa, 100 nM Ab” value [7] was 30%.

B8: 54E (antibody, human IgG1, V domains shown)
VH: QVQLVQSGAEVKKPGASVKVSCKASGYTFANYYMHWVRQAPGQGLEWMGIINPSGGITVYAQKFQGRVTMTRDTSTSTVYMELSSLRSEDTAVYYCARGGSKVAALAFDIWGQGTMVTVSS
VL: DIQMTQSPSSLSASVGDRVTITCQASQDISNSLNWYQQKPGKAPKLLIYDASNLETGVPSRFSGSRSGTDFTFTISSLQPEDIATYYCQQYNFHPLTFGGGTKVEIK
notes: human IgG1
B8 was tested, and the Kd (cynomolgus TF ECD-His6 [1]) was 1.83 nM, the Kd (human TF ECD-His6 [2]) was 0.42 nM and the binding result [5] was “no binding (tested: 15 µg/ml (100 nM))”. For the same binder, the Kd (cynomolgus TF ECD-His6 [4]) was 4.16 nM and the Kd (human TF ECD-His6 [3]) was 1.59 nM.

B9: 43B1 (antibody, human IgG1, V domains shown)
VH: QVQLQESGPGLVKPSQTLSLTCTVSGGSISSGQYWSWIRQHPGKGLEWIGEIYYSGSTRYNPSLKSRVTISVDTSKNQFSLKLSSVTAADTAVYYCARDAPYYYGGGYYYYMDVWGKGTTVTVSS
VL: EIVLTQSPGTLSLSPGERATLSCRASESVDSSYLAWYQQKPGQAPRLLIYGASTRQTGIPDRFSGSGSGTDFTLTISRLEPEDFAVYYCQQAGVVPYTFGGGTKVEIK
notes: human IgG1
B9 was tested, and the “TGA without pre-incubation, 10 nM Ab: % Peak IIa” value (relipidated TF [8]) was 87%, the “TGA without pre-incubation, 10 nM Ab: ETP” value (relipidated TF [8]) was 2290 nM·min and the “TGA without pre-incubation, 10 nM Ab: Lag Time” value (relipidated TF [8]) was 4.9 min. The “TGA without pre-incubation, 10 nM Ab: Peak IIa” value (relipidated TF [8]) was 299 nM, the “TGA without pre-incubation, 10 nM Ab: ttPeak” value (relipidated TF [8]) was 8.9 min and the “TGA without pre-incubation, 50 nM Ab: ETP” value (relipidated TF [8]) was 2200 nM·min. For the same binder, the “TGA without pre-incubation, 50 nM Ab: Lag Time” value (relipidated TF [8]) was 5.2 min, the “TGA without pre-incubation, 50 nM Ab: Peak IIa” value (relipidated TF [8]) was 232 nM and the “TGA without pre-incubation, 100 nM Ab: ETP” value (relipidated TF [8]) was 2170 nM·min. For the same binder, the “TGA without pre-incubation, 100 nM Ab: Lag Time” value (relipidated TF [8]) was 5.2 min, the “TGA without pre-incubation, 100 nM Ab: Peak IIa” value (relipidated TF [8]) was 221 nM and the Kd (mouse TF ECD-His6) was 72.1 nM.

B10: 43D (antibody, V domains shown)
VH: QVQLQQWGAGLLKPSETLSLTCAVYGGSLSGYYWSWIRQPPGKGLEWIGEIGASGSTRYNPSLKSRVTISVDTSKNQFSLKLSSVTAADTAVYYCARDTPYYYEGGYYYYMDVWGKGTTVTVSS
VL: B9 VL with E27Q, D30S, T54S, Q56A, A92V
B10 was tested, and the “% IL8, 2.56 nM Ab” value [9] was 58%, the “% IL8, 6.4 nM Ab” value [9] was 21% and the “% IL8, 40 nM Ab” value [9] was 5%. The “% IL8, 100 nM Ab” value [9] was 5% and the “% FXa, 25 nM Ab” value [7] was 109%.

B11: 43D (antibody, human IgG1, V domains shown)
VH: B10 VH
VL: B9 VL with E27Q, D30S, T54S, Q56A, A92V
notes: human IgG1
For B11, the Kd (cynomolgus TF ECD-His6 [1]) was 5.66 nM, the Kd (human TF ECD-His6 [2]) was 2.09 nM and the Kd (mouse TF ECD-His6) was 281 nM. It also gave a Kd (cynomolgus TF ECD-His6 [4]) of 4.12 nM and a Kd (human TF ECD-His6 [3]) of 3.84 nM.

B12: 43B (antibody, human IgG1, V domains shown)
VH: B9 VH
VL: B9 VL with E27Q, D30S, T54S, Q56A, A92V
notes: human IgG1
B12 showed a Kd (cynomolgus TF ECD-His6 [1]) of 5.64 nM, a Kd (human TF ECD-His6 [2]) of 1.75 nM and a Kd (mouse TF ECD-His6) of 161 nM. For the same binder, the Kd (cynomolgus TF ECD-His6 [4]) was 3.4 nM and the Kd (human TF ECD-His6 [3]) was 2.4 nM.

B13: anti-TF antibody 43D (antibody, human IgG1, V domains shown)
VH: B10 VH
VL: B9 VL with E27Q, D30S, T54S, Q56A, A92V
With B13 the “% GM-CSF, 2.56 nM antibody, MDA-MB-231 cells + FVIIa” value [10] was 56%, the “% GM-CSF, 6.4 nM antibody, MDA-MB-231 cells + FVIIa” value [10] was 24% and the “% GM-CSF, 16 nM antibody, MDA-MB-231 cells + FVIIa” value [10] was 13%. The “% GM-CSF, 40 nM antibody, MDA-MB-231 cells + FVIIa” value [10] was 11% and the “% GM-CSF, 100 nM antibody, MDA-MB-231 cells + FVIIa” value [10] was 12%.

B14: 43B7 (antibody, human IgG1, V domains shown)
VH: B9 VH
VL: B9 VL with S53D, T54S, Q56A, A92D
notes: human IgG1
In the case of B14, the Kd (cynomolgus TF ECD-His6 [1]) is reported as 0.24 nM, the Kd (human TF ECD-His6 [2]) is reported as 0.14 nM and the Kd (mouse TF ECD-His6) is reported as 360 nM. It also gave a Kd (cynomolgus TF ECD-His6 [4]) of 0.94 nM and a Kd (human TF ECD-His6 [3]) of 0.86 nM.

B15: M1593 (antibody, V domains shown)
VH: EVQLVQSGAEVKKPGESLRISCKGSGYTFAPYWIEWVRQMPGKGLEWMGDILPGTGFTTYSPSFQGHVTISADKSISTAYLQWSSLKASDTAMYYCARSGYYGNSGFAYWGQGTLVTVSS
VL: DIVMTQTPLSLPVTPGEPASISCKSSQSLLSSGNQKNYLTWYLQKPGQSPQLLIYWASTRESGVPDRFSGSGSGTDFTLKISRVEAEDVGVYYCQNDYTYPLTFGQGTKLEIK
notes: also called 10H10; 10H10 (M1593)
B15: no binding (tested: 15 µg/ml (100 nM)) [5].
